Laboratory results: patent JP2000166573A

Biological target: 抗Fasモノクローナル抗体HFE7A (mouse anti-human Fas monoclonal antibody HFE7A, from hybridoma FERM BP-5828)
Test: peptide (200 μg) preincubated with HFE7A (0.25 μg), then binding to WR19L12a cells by flow cytometry

Binder	結合阻害 (percent inhibition)
KCRCKPNFFC [P110 (synthetic 10-residue peptide of the human Fas extracellular region)]	60%
EINCTRTQNT [P100 (synthetic 10-residue peptide of the human Fas extracellular region)]	50%
